Measurements: publication PMC4588886, “A link between magnesium-chelatase H subunit and sucrose nonfermenting 1 (SNF1)-related protein kinase SnRK2.6/OST1 in Arabidopsis guard cell signalling in response to abscisic acid” (Journal of Experimental Botany, 2015)

Key:
[1] = target: T1, GST-tagged C-terminal half of ABAR protein (aa 681-1381) (Arabidopsis thaliana, UniProt Q9FNB0 681-1381); experiment: pull-down; GST-tagged ABAR (aa 681-1381, 1 ug) or GST alone added to E. coli lysate expressing His-tagged OST1; glutathione-sepharose 4B beads, 4 °C, 12 h; 10 mM Tris-HCl pH 7.5, 200 mM NaCl, 10% glycerol; blot with anti-His; conditions: one partner purified
T1 construct: Cloned into pGEX-4T-1; also called GST-ABAR; recombinant truncated ABAR protein; source: E. coli BL21(DE3), purified (Sepharose 4B)
T1 sequence (looked up): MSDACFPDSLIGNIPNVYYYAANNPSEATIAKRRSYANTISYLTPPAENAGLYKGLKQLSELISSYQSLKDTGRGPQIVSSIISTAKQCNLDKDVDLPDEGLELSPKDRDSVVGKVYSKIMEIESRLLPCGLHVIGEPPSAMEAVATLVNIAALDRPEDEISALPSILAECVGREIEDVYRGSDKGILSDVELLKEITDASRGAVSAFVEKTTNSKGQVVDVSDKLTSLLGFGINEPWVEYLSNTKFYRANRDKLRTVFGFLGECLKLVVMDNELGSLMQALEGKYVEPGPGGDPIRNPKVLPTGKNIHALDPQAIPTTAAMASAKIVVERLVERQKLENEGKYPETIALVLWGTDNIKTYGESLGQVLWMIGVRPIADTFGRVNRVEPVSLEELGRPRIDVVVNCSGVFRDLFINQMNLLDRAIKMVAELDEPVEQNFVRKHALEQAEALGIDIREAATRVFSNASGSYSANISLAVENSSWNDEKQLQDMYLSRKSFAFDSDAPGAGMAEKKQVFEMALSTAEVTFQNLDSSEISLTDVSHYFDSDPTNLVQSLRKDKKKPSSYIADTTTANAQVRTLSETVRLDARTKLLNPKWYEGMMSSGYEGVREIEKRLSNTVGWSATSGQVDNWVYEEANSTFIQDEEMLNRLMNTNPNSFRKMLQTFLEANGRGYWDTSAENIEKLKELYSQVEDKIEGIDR

[2] = target: T2, GST-tagged C-terminal half of ABAR protein (aa 681-1381) (Arabidopsis thaliana, UniProt Q9FNB0 681-1381); experiment: SPR
T2 chain: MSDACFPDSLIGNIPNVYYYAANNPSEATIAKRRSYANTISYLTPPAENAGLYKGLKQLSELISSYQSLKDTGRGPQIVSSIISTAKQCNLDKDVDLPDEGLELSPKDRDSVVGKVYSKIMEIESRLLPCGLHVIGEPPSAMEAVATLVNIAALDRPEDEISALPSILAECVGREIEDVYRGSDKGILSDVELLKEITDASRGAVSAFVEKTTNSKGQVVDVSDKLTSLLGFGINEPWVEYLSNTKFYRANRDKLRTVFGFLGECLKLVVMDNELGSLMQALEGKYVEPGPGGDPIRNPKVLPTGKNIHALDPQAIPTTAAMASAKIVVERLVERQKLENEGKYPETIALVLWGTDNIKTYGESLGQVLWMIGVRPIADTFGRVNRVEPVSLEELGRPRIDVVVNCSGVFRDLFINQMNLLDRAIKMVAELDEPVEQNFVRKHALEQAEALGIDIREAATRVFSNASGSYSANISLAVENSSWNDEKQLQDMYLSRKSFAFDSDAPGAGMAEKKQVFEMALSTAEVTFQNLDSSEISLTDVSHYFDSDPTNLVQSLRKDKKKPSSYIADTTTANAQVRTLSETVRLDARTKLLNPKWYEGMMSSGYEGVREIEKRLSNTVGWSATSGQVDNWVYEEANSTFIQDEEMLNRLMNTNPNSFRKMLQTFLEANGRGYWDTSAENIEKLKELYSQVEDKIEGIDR

B1: His-tagged OST1 protein (recombinant, full-length ORF) (enzyme, Arabidopsis thaliana, UniProt Q940H6 1-362, looked up)
chain: MDRPAVSGPMDLPIMHDSDRYELVKDIGSGNFGVARLMRDKQSNELVAVKYIERGEKIDENVKREIINHRSLRHPNIVRFKEVILTPTHLAIVMEYASGGELFERICNAGRFSEDEARFFFQQLISGVSYCHAMQVCHRDLKLENTLLDGSPAPRLKICDFGYSKSSVLHSQPKSTVGTPAYIAPEVLLKKEYDGKVADVWSCGVTLYVMLVGAYPFEDPEEPKNFRKTIHRILNVQYAIPDYVHISPECRHLISRIFVADPAKRISIPEIRNHEWFLKNLPADLMNDNTMTTQFDESDQPGQSIEEIMQIIAEATVPPAGTQNLNHYLTGSLDIDDDMEEDLESDLDDLDIDSSGEIVYAM
notes: SNF1-related protein kinase SnRK2.6/OST1/SRK2E, Arabidopsis thaliana, At4g33950, full-length ORF; Cloned into pET-48b(+); also called recombinant OST1; SnRK2.6; source: E. coli BL21(DE3): in cell lysate (pull-down); purified (Ni-NTA agarose)
- binding result [1]: binds
- Kd [2]: ~71.4 nM
